# Results from the supplement of paper PMC10567573.
# B1: ANKRD9 (parent)
# chain: VGAAGSARQELLGDRPRWQRLLGE
# Variants of: B1
# Experiment: protein stability index of a GFP-peptide fusion (GPS, HEK-293T) (PSI 1-6); higher = more stable
# Conditions: c terminus: a fixed tail appended
# 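Also: lentivirally expressed fusions sorted by FACS into six bins by GFP to DsRed ratio, PSI derived from sequencing read proportions per bin multiplied by bin number.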
row,Variant,protein stability index
1,VGAAGSARQELLGDRPRWWRLLGE [Q19W],2.81
2,VAAAGSARQELLGDRPRWQRLLGE [G2A],3.23
3,VGEAGSARQELLGDRPRWQRLLGE [A3E],3.55
4,VGAQGSARQELLGDRPRWQRLLGE [A4Q],4.11
5,VGAAGSARQELLGDCPRWQRLLGE [R15C],3.11
6,VGAAGSARQELLVDRPRWQRLLGE [G13V],2.63
7,VGAAGSANQELLGDRPRWQRLLGE [R8N],4.03
8,LGAAGSARQELLGDRPRWQRLLGE [V1L],2.86
9,VGAAGSARQELLDDRPRWQRLLGE [G13D],2.73
10,VGAAGSARQELLGDRPRWGRLLGE [Q19G],2.94
11,VGAAGSARQELLGDRPRVQRLLGE [W18V],4.4
12,VGAAGSARQELLGDRARWQRLLGE [P16A],3.68
13,PGAAGSARQELLGDRPRWQRLLGE [V1P],3.62
14,VGAAGSARQELLGDRPYWQRLLGE [R17Y],2.37
15,VGADGSARQELLGDRPRWQRLLGE [A4D],3.35
16,VGAWGSARQELLGDRPRWQRLLGE [A4W],2.62
17,VGAAGSARQELLGDRPFWQRLLGE [R17F],1.94
18,VGAAGSARQELLGDRPRWQKLLGE [R20K],2.71
19,VGAAGSARFELLGDRPRWQRLLGE [Q9F],2.81
20,VGAAGSARVELLGDRPRWQRLLGE [Q9V],3.14
21,VGAAGSCRQELLGDRPRWQRLLGE [A7C],3.44
22,VGPAGSARQELLGDRPRWQRLLGE [A3P],3.58
23,VGAAGSARQELLGDRPRWQRLYGE [L22Y],2.42
24,VGAAGSARQELLGDRPRSQRLLGE [W18S],4.2

row,Variant,protein stability index
1,VGAAGSARQELLGDVPRWQRLLGE [R15V],3.41
2,VGAAGGARQELLGDRPRWQRLLGE [S6G],2.85
3,VGAAGSARQELLMDRPRWQRLLGE [G13M],3.02
4,VGAAGSAKQELLGDRPRWQRLLGE [R8K],3.15
5,VGAAGSARQELLGDRPRWQELLGE [R20E],2.18
6,VGAAGSARQVLLGDRPRWQRLLGE [E10V],3.25
7,VGAAGSARQELLGDRPRPQRLLGE [W18P],4.98
8,VGAAGSARQELLGDRPRWQWLLGE [R20W],3.32
9,VGAAGSAPQELLGDRPRWQRLLGE [R8P],2.94
10,VSAAGSARQELLGDRPRWQRLLGE [G2S],3.39
11,VLAAGSARQELLGDRPRWQRLLGE [G2L],2.71
12,VGAAGNARQELLGDRPRWQRLLGE [S6N],3.77
13,VGAAGSARQTLLGDRPRWQRLLGE [E10T],2.39
14,VGAAGSARQELLGDRPRWQRMLGE [L21M],3.03
15,VGAAMSARQELLGDRPRWQRLLGE [G5M],2.37
16,VGAAGSARQELLGDRPRWDRLLGE [Q19D],2.83
17,VGAAGSARQELLGDPPRWQRLLGE [R15P],3.11
18,VPAAGSARQELLGDRPRWQRLLGE [G2P],3.11
19,VGAAGSARQELLGERPRWQRLLGE [D14E],3.27
20,VGAAGSARQELLGDRPTWQRLLGE [R17T],3.43
21,VGAAGSARQELLGDWPRWQRLLGE [R15W],3.1
22,VGAPGSARQELLGDRPRWQRLLGE [A4P],3.39
23,VGAAGSARQELLGDRPRWQRLLDE [G23D],3.84
24,VGAAGSARQELLGDRPRWQRLLWE [G23W],2.64

row,Variant,protein stability index
1,VGAAGSARMELLGDRPRWQRLLGE [Q9M],3
2,VWAAGSARQELLGDRPRWQRLLGE [G2W],2
3,VGAAGSARQELLGDRPRMQRLLGE [W18M],3.57
4,VNAAGSARQELLGDRPRWQRLLGE [G2N],3.82
5,VGAAGSARQEELGDRPRWQRLLGE [L11E],4.13
6,VGAAGSARQELLGDRPRWQRILGE [L21I],2.93
7,VGAAGSARQELLGDRPRWQRLVGE [L22V],3.68
8,VEAAGSARQELLGDRPRWQRLLGE [G2E],3.29
9,VGAAGSARQELLGDRPRWQRLWGE [L22W],2.96
10,VGAAGSARQELLGDRPGWQRLLGE [R17G],3.5
11,FGAAGSARQELLGDRPRWQRLLGE [V1F],2.7
12,VYAAGSARQELLGDRPRWQRLLGE [G2Y],2.24
13,VGAAGSARQELLGDRPNWQRLLGE [R17N],3.29
14,VGAAGSARQELLGDSPRWQRLLGE [R15S],4.15
15,VGAAGSARQELLGDRPWWQRLLGE [R17W],2.61
16,VGAAGSHRQELLGDRPRWQRLLGE [A7H],3.36
17,VGAAGSARQELLGDRPRWQPLLGE [R20P],2.19
18,VGAAGSARQELLGRRPRWQRLLGE [D14R],2.75
19,VGAAGSARQELLWDRPRWQRLLGE [G13W],1.9
20,VRAAGSARQELLGDRPRWQRLLGE [G2R],4.84
21,VGAAGSARQELVGDRPRWQRLLGE [L12V],2.49
22,VGAAGSARQELLGDRPDWQRLLGE [R17D],3.41
23,VGAAGSARQELLGDRPRWQRLLKE [G23K],3.19
24,HGAAGSARQELLGDRPRWQRLLGE [V1H],3.33

row,Variant,protein stability index
1,VGAAGSARQELLGDRPRWQALLGE [R20A],2.58
2,VGAFGSARQELLGDRPRWQRLLGE [A4F],2.44
3,VGAAGSARQELLGDGPRWQRLLGE [R15G],3.75
4,VGAAGSARQFLLGDRPRWQRLLGE [E10F],3.33
5,VGAAGSARQELLGDRMRWQRLLGE [P16M],2.94
6,VGAAGSARQELLGDRPPWQRLLGE [R17P],4.29
7,VGAAGSARQELLGDRPRWQRLLCE [G23C],2.88
8,VGAAGSARQEWLGDRPRWQRLLGE [L11W],2.61
9,VGAAGSARQELLGDRPRWQRLKGE [L22K],3.57
10,VGAAGSARQALLGDRPRWQRLLGE [E10A],2.85
11,VGAARSARQELLGDRPRWQRLLGE [G5R],2.27
12,VGHAGSARQELLGDRPRWQRLLGE [A3H],2.91
13,VGAAWSARQELLGDRPRWQRLLGE [G5W],2.9
14,VGAAGSALQELLGDRPRWQRLLGE [R8L],2.92
15,VGAAGSARQELLGDRPRWQRTLGE [L21T],3.13
16,VGAAGSARQELLGDKPRWQRLLGE [R15K],3.06
17,VGAAGSARQELLGDRPRWQRLLGG [E24G],3.2
18,VGSAGSARQELLGDRPRWQRLLGE [A3S],2.78
19,CGAAGSARQELLGDRPRWQRLLGE [V1C],1.95
20,VGAAGSARQELLGDRPRWNRLLGE [Q19N],3.94
21,VGAAGSARQELLGDRPRWQRFLGE [L21F],2.68
22,VGAAGSARQELLGDRPEWQRLLGE [R17E],3.81
